This data set has as its system CN[C@@H]1[C@H](O)[C@H](NC)[C@H]2O[C@@]3(O)C(=O)C[C@@H](C)O[C@H]3O[C@@H]2[C@H]1O. Nature of the data set: purified protein. As to conditions: 2 mM ATP, 10 mM MgCl2, 20 mM KCl, 100 mM HEPES pH 7.0, 37 °C. In kind it is biochemical, Stenotrophomonas maltophilia.

Data on one substance can be found in PMC9868417, “Functional characterization of a novel aminoglycoside phosphotransferase, APH(9)-Ic, and its variant from Stenotrophomonas maltophilia” (Frontiers in Cellular and Infection Microbiology, 2023).

In the case of “APH(9)-Ic (Stenotrophomonas maltophilia K279a)”, the Km came to 31 ± 5 µM and the kcat was 1.09 ± 0.09 s⁻¹.

Usually Km stands for the concentration of substrate that gives half-maximal velocity. As usually defined, the kcat is the maximal rate divided by the concentration of active sites.
